The target in one experiment is T1, CD28/Fc (UniProt P10747 19-152).
T1 construct: not shown: Fc part of the fusion
The experiment is described as follows: indirect ELISA, antigen coated at 1 μg/mL, goat anti-human F(ab')2-HRP. A general note: An ELISA detects its analyte on a solid surface through an enzyme-linked reagent.

The target of another experiment is T2, CTLA4/Fc (UniProt P16410 36-162, limits assumed).
T2 construct: not shown: Fc part of the fusion
T2 sequence (looked up): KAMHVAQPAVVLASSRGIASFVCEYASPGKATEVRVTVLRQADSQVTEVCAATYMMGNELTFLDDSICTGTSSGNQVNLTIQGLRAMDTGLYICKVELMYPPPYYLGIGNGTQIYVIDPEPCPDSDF
The experiment is described as above.

In a further experiment the target is T3, BTLA/Fc (UniProt Q7Z6A9 31-157, limits assumed).
T3 construct: not shown: Fc part of the fusion
T3 sequence (looked up): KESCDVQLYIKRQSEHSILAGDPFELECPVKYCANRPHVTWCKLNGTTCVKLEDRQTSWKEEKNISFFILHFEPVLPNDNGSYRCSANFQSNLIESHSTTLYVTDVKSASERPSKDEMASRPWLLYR
The experiment is described as above.

The target of the next experiment is T4, ICOS/Fc (UniProt Q9Y6W8 21-141).
T4 construct: not shown: Fc part of the fusion
T4 sequence (looked up): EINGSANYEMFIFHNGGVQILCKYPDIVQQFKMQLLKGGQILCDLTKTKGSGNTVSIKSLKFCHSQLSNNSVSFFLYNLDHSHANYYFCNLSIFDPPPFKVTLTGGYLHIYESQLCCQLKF
Described as above.

A further experiment has as its target T5, PD-1/Fc (UniProt Q15116 25-167).
T5 construct: also called PD-1/Fc抗原; PD-1/Fc融合蛋白; not shown: Fc part of the fusion
The experiment can be described thus: Biacore SPR: antibody captured by anti-human Fab on a CM5 chip, PD-1/Fc as analyte. For orientation: SPR reads the build-up and loss of mass on a sensor chip optically.

A word on the Kd: it is the concentration at which binding is half-saturated. In general, koff refers to the first-order rate constant of dissociation. Higher therefore signals a short-lived complex. As a reminder, the kon is the rate constant with which the complex forms.

T5 sequence (Q15116 25-167 limits assumed): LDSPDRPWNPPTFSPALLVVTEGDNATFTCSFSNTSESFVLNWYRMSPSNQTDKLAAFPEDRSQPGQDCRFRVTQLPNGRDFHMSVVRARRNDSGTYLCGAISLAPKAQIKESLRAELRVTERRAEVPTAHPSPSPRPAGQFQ
T1 sequence (P10747 19-152 limits assumed): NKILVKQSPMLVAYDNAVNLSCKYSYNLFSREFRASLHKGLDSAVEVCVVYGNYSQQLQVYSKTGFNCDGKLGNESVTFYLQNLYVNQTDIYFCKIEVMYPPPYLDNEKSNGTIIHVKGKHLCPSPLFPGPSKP

B1: 本发明制备的抗PD-1抗体 (anti-PD-1 monoclonal antibody of the invention) (antibody, V domains shown)
VH: QVQLVESGGGVVQPGRSLRLNCKASGITFSNSGMHWVRQAPGKGLEWVAVIWYDGSKLYYADSVKGRFTISRDNSKNTLFLQMNSLRAEDTAVYYCATDSDYWGQGTLVTVSS
VL: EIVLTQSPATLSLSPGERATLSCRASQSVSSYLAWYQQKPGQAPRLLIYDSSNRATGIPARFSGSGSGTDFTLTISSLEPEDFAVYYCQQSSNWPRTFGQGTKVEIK
notes: Variable regions cloned into the full-length antibody vector PRT/KIgG1 (IgG1 heavy constant region CH1-CH2-CH3, kappa light constant region); also called 本发明制备抗体
For the molecule B1, the binding result with CD28/Fc, with CTLA4/Fc, with BTLA/Fc and with ICOS/Fc was “no binding (tested: antibody at 1 μg/mL)” throughout. The Kd with PD-1/Fc turned out to be 0.328 nM. This molecule gave a koff with PD-1/Fc of 9.6e-05 s⁻¹. This molecule also yielded a kon with PD-1/Fc of 292000 M⁻¹ s⁻¹.
